From patent US20080015165A1, “NOVEL POLYPEPTIDE” (KYOWA HAKKO KOGYO CO., LTD., priority 1998, published 2008)

Assays:
Namalwa KJM-1 cells = test: Indirect fluorescent antibody staining (FACS) of transformed Namalwa KJM-1 cells; assay type: cell-based, human; details: antibodies CSLEX-1, KM93; FIG. 2 (also Namalwa cells, FIG. 1)
Excerpt: Similarly, Namalwa KJM-1 cells, into which a control plasmid (pAMo), a mouse Fuc-TIX expression plasmid (pAMo-mFT9), a human Fuc-TIV expression plasmid (pAMo-FT4), or a human Fuc-TVII expression plasmid (pAMo-FT7) had been introduced, were obtained. The cells were subjected to indirect fluorescent antibody staining using the anti-Lewis x sugar chain antibody (KM380) and an anti-sialyl Lewis x sugar chain antibodies (CSLEX-1 or KM93) (see FIG. 2).

COS-1 cells = test: Indirect fluorescent antibody staining (FACS) of transformed COS-1 cells; assay type: cell-based, African green monkey; details: antibody 7LE; FIG. 3
Method: Further, COS-1 cells, into which a control plasmid (pCDM8), a mouse Fuc-TIX expression plasmid (pCDM8-mFT9), or a human Fuc-TIII expression plasmid (pCDM8-Le) had been introduced, were prepared. The cells were subjected to indirect fluorescent antibody staining using the anti-Lewis a sugar chain antibody (7LE, manufactured by […] CORPORATION) (see FIG. 3).
Each α1,3-fucosyltransferase expression plasmid (15 μg) was introduced into 1×10^7 COS-1 cells.
This introduction was performed by electroporation method using a gene pulser (manufactured by Bio-Rad) according to the Bio-Rad's instructional manual attached thereto. At this time, 1 μg of a luciferase expression vector, which was constructed by inserting β-actin promoter into a Hind III site of a vector pSVOA/L [Experimental Medicine, 7, 96, (1989)] was co-introduced as an index of gene transfer efficiency.

B1: Fuc-TIX: human Fuc-TIX, 359 amino acids (SEQ ID NO:2), α1,3-fucosyltransferase expressed from pAMo-FT9 in Namalwa cells (protein)
chain: MTSTSKGILRPFLIVCIILGCFMACLLIYIKPTNSWIFSPMESASSVLKMKNFFSTKTDYFNETTILVWVWPFGQTFDLTSCQAMFNIQGCHLTTDRSLYNKSHAVLIHHRDISWDLTNLPQQARPPFQKWIWMNLESPTHTPQKSGIEHLFNLTLTYRRDSDIQVPYGFLTVSTNPFVFEVPSKEKLVCWVVSNWNPEHARVKYYNELSKSIEIHTYGQAFGEYVNDKNLIPTISACKFYLSFENSIHKDYITEKLYNAFLAGSVPVVLGPSRENYENYIPADSFIHVEDYNSPSELAKYLKEVDKNNKLYLSYFNWRKDFTVNLPRFWESHACLACDHVKRHQEYKSVGNLEKWFWN
modifications: human
Q: With B1 as the molecule, how does the “synthesis of the sialyl Lewis x sugar chain in transformed cells” value (Namalwa KJM-1 cells) read?
A: The value was “cannot synthesize”.

Q: And the “synthesis of the Lewis a sugar chain in transformed cells” value (COS-1 cells)?
A: Its value is “cannot synthesize”.
